Experiment [1] addresses T1, PLS2 RD-ABD1 (a.a. 1–385) (human, UniProt P13796 1-385).
T1 chain: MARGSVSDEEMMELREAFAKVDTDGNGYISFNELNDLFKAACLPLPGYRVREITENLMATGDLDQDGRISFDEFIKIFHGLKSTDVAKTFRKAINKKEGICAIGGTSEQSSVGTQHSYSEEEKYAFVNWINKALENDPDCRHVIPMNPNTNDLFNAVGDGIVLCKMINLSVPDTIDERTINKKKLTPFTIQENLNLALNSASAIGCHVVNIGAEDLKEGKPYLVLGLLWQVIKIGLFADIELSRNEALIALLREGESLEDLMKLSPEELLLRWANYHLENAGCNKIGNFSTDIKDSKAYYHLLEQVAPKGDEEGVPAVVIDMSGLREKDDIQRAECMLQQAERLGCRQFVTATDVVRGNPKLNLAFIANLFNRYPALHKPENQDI
Description: FP; pH 8.0.

Experiment [2] deals with T1, PLS2 RD-ABD1 (a.a. 1–385). Kind of experiment: FP; pH 7.0.

B1: fluorescein-maleimide labeled PLS2 ABD2 (FM-ABD2) (domain or fragment)
chain: PENQDIDWGALEGETREERTFRNWMNSLGVNPRVNHLYSDLSDALVIFQLYEKIKVPVDWNRVNKPPYPKLGGNMKKLENCNYAVELGKNQAKFSLVGIGGQDLNEGNRTLTLALIWQLMRRYTLNILEEIGGGQKVNDDIIVNWVNETLREAKKSSSISSFKDPKISTSLPVLDLIDAIQPGSINYDLLKTENLNDDEKLNNAKYAISMARKIGARVYALPEDLVEVNPKMVMTVFACLMGKGM
modifications: fluorescein maleimide (FM) label; labeled residue not stated
Turning to B1, the Kd (usually the free concentration of one partner at which half of the binding sites on the other are occupied at equilibrium, for simple one-to-one binding) in experiment [1] was 8.7 nM; in experiment [2], 4.5 nM.

The values above are taken from paper PMC12309418 (2025).
